Changes are numbered by the printed parent chain.
T1: human BMP6 (R&D Systems, Cat #507-BP) (human, UniProt P22004 375-513, limits assumed)
T1 construct: Bought protein (R&D Systems 507-BP or 507-BP/CF); also called hBMP6; hBMP-6
T1 sequence: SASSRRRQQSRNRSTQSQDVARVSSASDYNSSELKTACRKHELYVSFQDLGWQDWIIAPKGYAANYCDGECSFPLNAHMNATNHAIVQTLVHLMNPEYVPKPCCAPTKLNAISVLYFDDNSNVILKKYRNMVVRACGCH

T2: mouse BMP6 (R&D Systems, Cat #6325-BM) (mouse, UniProt P20722 372-510, limits assumed)
T2 sequence: T1 sequence with A21S, V23G, S25G, A26S, S31G, R39K

T3: Human BMP7 (human, UniProt P18075 293-431)
T3 sequence (looked up): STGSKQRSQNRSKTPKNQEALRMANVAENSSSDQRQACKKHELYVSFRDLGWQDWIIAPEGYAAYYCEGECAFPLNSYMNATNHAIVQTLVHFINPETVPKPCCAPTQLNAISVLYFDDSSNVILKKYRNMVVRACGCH

B1: H4H17871P (antibody, V domains shown)
VH: EVQLVESGGGLVQPGGSLRLSCAASGFTFNNYAMSWVRQAPGKGLEWVSAISGSGDSTYYADSVKGRFTISRDNSKNTLYLQMNSLRAEDTAVYYCAKRSRSSPFDPWGQGTLVTVSS
VL: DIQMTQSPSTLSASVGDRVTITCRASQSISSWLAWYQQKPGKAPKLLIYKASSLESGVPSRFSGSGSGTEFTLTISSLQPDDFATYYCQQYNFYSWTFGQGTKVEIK
notes: Fully human antibody; also called anti-BMP6 monoclonal antibody; BMP6 antibody of the invention
B2: H4H17855P (antibody, V domains shown)
VH: B1 VH with N30S, N31S, D56G, S57R, A61T, I70M, S100P, R101Y, S102N
VL: EIVLTQSPGTLSLSPGEGATLSCRASQSVSSSYLAWYQQKPGQAPRLLIYGASSRATGIPDRFSGSGSGTDFTLTISRLEPEDFVVYYCQHFGGTPFTFGGGTKVEIK
notes: as for B1

How the values were obtained:
[1] = target: T1, human BMP6 (R&D Systems, Cat #507-BP); assay: SPR (MASS-1), mAb captured on anti-human Fc, hBMP6 in solution, 25 C
Experimental: (§1) Equilibrium dissociation constants (KD values) for human and mouse BMP6 binding to purified anti-BMP6 monoclonal antibodies of this invention were determined using a real-time surface plasmon resonance (SPR) biosensor instrument, MASS-1. All binding studies were performed in 10 mM HEPES, 150 mM NaCl, 3 mM EDTA, 1 μg/mL Heparin, and 0.05% v/v Surfactant Tween-20, pH 7.4 (HBS-EHT) running buffer at 25° C. and 37° C. The HCA sensor surface was first derivatized by amine coupling the monoclonal mouse anti-human Fc antibody (GE, #BR100839) and anti-BMP6 monoclonal antibodies were individually captured. Different concentrations of human BMP6 reagents (hBMP6; R&D Systems, Cat #507-BP; 60 nM-0.94 nM; 4-fold serial dilution) or mouse BMP6 (mBMP6; R&D Systems, Cat #6325-BM; 60 nM and 15 nM) prepared in HBS-EHT running buffer were injected over the captured anti-BMP6 monoclonal antibody for 4 minutes at a flow rate of 30 μL/minute, while the dissociation of BMP6 reagent bound to captured anti-BMP6 monoclonal antibody was monitored for 10 minutes in HBS-EHT running buffer. Kinetic association (kₐ) and dissociation (kd) rate constants were determined by fitting the real-time binding sensorgrams to a 1:1 binding model with mass transport limitation using Scrubber 2.0c software. Binding dissociation equilibrium constant (KD) and dissociative half-life (t½) for different anti-BMP6 monoclonal antibodies were calculated from the kinetic rate constants as: […]

[2] = target: T1, human BMP6 (R&D Systems, Cat #507-BP); assay: cell-based or functional assay
[3] = target: T2, mouse BMP6 (R&D Systems, Cat #6325-BM); assay: cell-based or functional assay
[4] = target: T1, human BMP6 (R&D Systems, Cat #507-BP); assay: BLI (Octet HTX), mAb captured on Protein A sensor, 100 nM ligand, 25 C
Experimental: (§2) Binding cross-reactivity of anti-BMP6 monoclonal antibodies to BMP6 family members, (Human: BMP6, BMP5, BMP7, BMP8A, BMP9, BMP10, BMP12, BMP14, BMP3b, Activin A, and GDF3 and mouse: BMP6 and GDF6) was determined using a real-time Bio-Layer Interferometry (BLI) biosensor using Octet HTX instrument. All binding studies were performed in 10 mM HEPES, 150 mM NaCl, 3 mM EDTA, 1 mg/mL BSA, 50 μg/mL Heparin, and 0.05% v/v Surfactant Tween-20, pH 7.4 (HBS-EBHT) buffer at 25° C. with the plate shaking at a speed of 1000 rpm. To assess binding cross-reactivity, Protein A coated Octet biosensor (Pall ForteBio Corp., #18-5010) was first dipped in wells containing […] of anti-BMP6 monoclonal antibodies for 4 minutes followed by submerging in wells containing 100 nM of different BMP6 family members for 4 minutes. The biosensors were washed in HBS-EBHT buffer in between every step of the experiment. At the end of each cycle, the Protein A biosensor was regenerated using three alternate 5 second dips in 10 mM Glycine pH 2.0 and 10 second dip HBS-EBHT buffer. The real-time binding response was monitored during the course of the experiment and the binding response at the end of every step was recorded and tabulated as shown in Tables 8A and 8B.

Human BMP7 = target: T3, Human BMP7; assay: as above
Experimental: as §2

[5] = target: T2, mouse BMP6 (R&D Systems, Cat #6325-BM); assay: as above
Experimental: as §2

[6] = target: T1, human BMP6 (R&D Systems, Cat #507-BP); assay: SPR (MASS-1), mAb captured on anti-human Fc, hBMP6 in solution, 37 C
Experimental: as §1

[7] = target: T2, mouse BMP6 (R&D Systems, Cat #6325-BM); assay: SPR (MASS-1), mAb captured on anti-human Fc, mBMP6 in solution, 25 C
Experimental: as §1

[8] = target: T2, mouse BMP6 (R&D Systems, Cat #6325-BM); assay: SPR (MASS-1), mAb captured on anti-human Fc, mBMP6 in solution, 37 C
Experimental: as §1

Binder | koff [1] [s⁻¹] | kon [1] [M⁻¹ s⁻¹] | t1/2 [1] [h] | IC50 [M], inhibition of 1 nM hBMP6 activation of Hep3B/BRE-luc cells (luciferase) [2] [M] | IC50 [M], inhibition of 5 nM mBMP6 activation of W-20-17/BRE-luc cells (luciferase) [3] [M] | binding response [4] [nm] | binding response (Human BMP7) [nm] | binding response [5] [nm] | kon [6] [M⁻¹ s⁻¹] | Kd [7] [nM] | koff [7] [s⁻¹] | kon [7] [M⁻¹ s⁻¹] | t1/2 [7] [h] | Kd [8] [nM] | koff [8] [s⁻¹] | kon [8] [M⁻¹ s⁻¹] | t1/2 [8] [h] | Kd [1] [nM] | Kd [6] [nM] | t1/2 [6] [h]
B1 | 4.14e-05 | 283000 | 4.65 | 1.6e-09 | 1.1e-08 | 0.21 | 0 | 0.09 | 41600 | 3.39 | 0.000127 | 37400 | 1.52 | 4 | 9.43e-05 | 23500 | 2.05 | – | – | –
B2 | 6.3e-05 | 178000 | 3.05 | 2.5e-10 | 1.9e-09 | 0.29 | 0.05 | 0.09 | 61100 | 3.55 | 0.00013 | 36600 | 1.48 | 6.46 | 0.000154 | 23800 | 1.25 | 0.355 | 1.34 | 2.35
